Here are results for one molecule from article PMC10045489 (Bioengineering, 2023).

This assay has as its target T1, receptor-binding domain of the SARS-CoV-2 spike protein fused to the maltose-binding protein (SARS-CoV-2, wild-type (Wuhan-Hu-1 …, UniProt P0DTC2)).
T1 construct: also called MBP-RBD; RBD-MBP
Briefly: BLI. Conditions: both partners purified.

B1: VHH72 nanobody (VHH)
VHH: QVQLQESGGGLVQAGGSLRLSCAASGRTFSEYAMGWFRQAPGKEREFVATISWSGGSTYYTDSVKGRFTISRDNAKNTVYLQMNSLKPDDTAVYYCAAAGLGTVVSEWDYDYDYWGQGTQVTVSS
notes: not shown: ecotin, N-terminal, cleaved; His-tag, N-terminal, cleaved
Take B1: the binding result is “binds”.
